In patent publication US20050069907A1, “Methods for using double-mutant RNA polymerases with reduced discrimination between non-canonical and canonical nucleoside triphosphates” (priority 2002, published 2005):

Experiments:
[1] = tested on: pT75; test: Activity with NTPs containing different 2′-substituents; assay type: biochemical; design: unit not given here
Experimental: Activity was determined with pT75 as template but with one of the rNTPs replaced with a dNTP or a 2′-modified NTP. The labeling NTP was UTP (in reactions with 2′-modified CTPs or ATPs) or CTP (in reactions with 2′-modified UTPs). Y639F and Y639M represent enzymes with substitutions of the wild-type (W.T.) tyrosine at position 639 by phenyalanine (F) or methionine (M), respectively.

[2] = tested on: supercoiled pT75; test: Relative transcription activity with different rNTP/dNTP mixes; assay type: biochemical
Experimental: Transcription reactions: Transcription reactions were carried out in 40 mM Tris-Cl pH 8.0, 15 mM MgCl2, and 5 mM DTT or 20 mM Manganese Citrate pH 8.0, 5 mM DTT at 37° C. Template, polymerase, and NTP concentrations were as indicated in the legends to the figures and tables. Relative activity determinations were made by taking 4 μl aliquots of reactions at 5, 10, and 20 minute time points and spotting on to DE81 filter paper. Unincorporated nucleotides were separated from incorporated nucleotides by washing the filter paper with 0.5 M KH2PO4 pH 7.0 and retained radioactive nucleotide was quantitated with a Molecular Dynamics phosphorimager. To evaluate rNTP/dNTP selectivity, reactions were run with 4 rNTPs and pT75 as template and α-P^32 rNTPs or α-P^32 dNTPs were used to label the transcripts. The relative rate of incorporation of an rNTP vs. its cognate dNTP was determined from the relative percentages of labeled rNTP vs. dNTP incorporated into DE81 retainable RNA at 5, 10, and 20 minute time points. Apparent miscoding frequencies were determined similarly, though in this instance the template was a single-stranded homopolymer and the reaction contained the complementary unlabeled rNTP, and complementary α-P^32 rNTP or one of the 3 non-complementary α-P^32 rNTPs. The relative percentages of labeled complementary vs. non-complementary rNTPs incorporated at 5, 10 and 20 minute time points gave an apparent miscoding rate. The rNTP/dNTP selectivity assay was used to test the following T7 RNAP mutants for effects on substrate discrimination: D537S, D537E, S539A, R5S1S, D552S, R627S, K631S, L637A, Y639S, Y639F, Y639A, G640A, F644A, G645A, Q649S, […], H811S, H811A, D812A, D812E, D812S, D812N, D879E+ΔF882+ΔA883, D879E+A881T+ΔA883, D879E+F884+A885, D879E+F882Y, D879E+ΔA883, D879E+F882W, D879E.
Relative activity of the W.T. and Y639F polymerases with different NTP combinations: The relative activities of the Y639F and W.T. polymerases with supercoiled pT75 as a template and various combinations of rNTPs/dNTPs were measured in both Mg^2+ and Mn^2+ buffers (see, Table II,).

[3] = 1 rNTP, dCTP, dATP, dGTP, with rGMP, Mg^2+
[4] = 1 rNTP, dCTP, dATP, dGTP, with rGMP, Mn^2+
[5] = 1 rNTP, dCTP, dATP, dTTP, Mg^2+
[6] = 1 rNTP, dCTP, dATP, dTTP, Mn^2+
[7] = 1 rNTP, dCTP, dATP, dUTP, Mg^2+
[8] = 1 rNTP, dCTP, dATP, dUTP, Mn^2+
[9] = 1 rNTP, dTTP, dATP, dGTP, with rGMP, Mg^2+
[10] = 1 rNTP, dTTP, dATP, dGTP, with rGMP, Mn^2+
[11] = 1 rNTP, dTTP, dCTP, dGTP, with rGMP, Mg^2+
[12] = 1 rNTP, dTTP, dCTP, dGTP, with rGMP, Mn^2+
[13] = 2 rNTPs, dATP, dGTP, rGMP, Mg^2+
[14] = 2 rNTPs, dATP, dGTP, rGMP, Mn^2+
[15] = 2 rNTPs, dCTP, dGTP, rGMP, Mg^2+
[16] = 2 rNTPs, dCTP, dGTP, rGMP, Mn^2+
[17] = 2 rNTPs, dTTP, dGTP, rGMP, Mg^2+
[18] = 2 rNTPs, dTTP, dGTP, rGMP, Mn^2+

## W.T.: wild-type T7 RNA polymerase [reference compound]
[1]; 2′-F-ATP replacing ATP
  Activity: 6.6 ± .12
[1]; 2′-F-CTP replacing CTP
  Activity: 3.4 ± .22
[1]; 2′-F-UTP replacing UTP
  Activity: 3.1 ± .14
[1]; 2′-NH2-ATP replacing ATP
  Activity: 18 ± .39
[1]; 2′-NH2-CTP replacing CTP
  Activity: 34 ± .86
[1]; 2′-NH2-UTP replacing UTP
  Activity: 5.9 ± .27
[1]; 2′-dATP replacing ATP
  Activity: 2.7 ± .28
[1]; 2′-dCTP replacing CTP
  Activity: 1.6 ± .16
[1]; 2′-dUTP replacing UTP
  Activity: 2.4 ± .11
[1]; ATP
  Activity: 100
[1]; CTP
  Activity: 100
[1]; UTP
  Activity: 100
[2]; [3]
  Relative activity: <.5
[2]; [4]
  Relative activity: <.5
[2]; [5]
  Relative activity: <.5
[2]; [6]
  Relative activity: <.5
[2]; [7]
  Relative activity: <.5
[2]; [8]
  Relative activity: <.5
[2]; [9]
  Relative activity: <.5
[2]; [10]
  Relative activity: <.5
[2]; [11]
  Relative activity: <.5
[2]; [12]
  Relative activity: <.5
[2]; [13]
  Relative activity: <.5
[2]; [14]
  Relative activity: <.5
[2]; 2 rNTPs, dATP, dTTP, Mg^2+
  Relative activity: <.5
[2]; 2 rNTPs, dATP, dTTP, Mn^2+
  Relative activity: <.5
[2]; 2 rNTPs, dCTP, dATP, Mg^2+
  Relative activity: <.5
[2]; 2 rNTPs, dCTP, dATP, Mn^2+
  Relative activity: .5-.9
[2]; [15]
  Relative activity: <.5
[2]; [16]
  Relative activity: <.5
[2]; 2 rNTPs, dCTP, dTTP, Mg^2+
  Relative activity: 2
[2]; 2 rNTPs, dCTP, dTTP, Mn^2+
  Relative activity: 5-7
[2]; 2 rNTPs, dCTP, dUTP, Mg^2+
  Relative activity: 2-6
[2]; 2 rNTPs, dCTP, dUTP, Mn^2+
  Relative activity: 3
[2]; [17]
  Relative activity: <.5
[2]; [18]
  Relative activity: <.5
[2]; 3 rNTPs, dATP, Mg^2+
  Relative activity: 1-2
[2]; 3 rNTPs, dATP, Mn^2+
  Relative activity: 1-2
[2]; 3 rNTPs, dCTP, Mg^2+
  Relative activity: 4-9
[2]; 3 rNTPs, dCTP, Mn^2+
  Relative activity: 15
[2]; 3 rNTPs, dGTP, rGMP, Mg^2+
  Relative activity: <.5
[2]; 3 rNTPs, dGTP, rGMP, Mn^2+
  Relative activity: 1-3
[2]; 3 rNTPs, dGTP, Mg^2+
  Relative activity: <.5
[2]; 3 rNTPs, dGTP, Mn^2+
  Relative activity: .5-2
[2]; 3 rNTPs, dTTP, Mg^2+
  Relative activity: 11-13
[2]; 3 rNTPs, dTTP, Mn^2+
  Relative activity: 7-8
[2]; 3 rNTPs, dUTP, Mg^2+
  Relative activity: 9-11
[2]; 3 rNTPs, dUTP, Mn^2+
  Relative activity: 10-11
[2]; 4 dNTPs, rGMP, Mg^2+
  Relative activity: <.5
[2]; 4 dNTPs, rGMP, Mn^2+
  Relative activity: <.5
[2]; 4 rNTPs, Mg^2+
  Relative activity: 200
[2]; 4 rNTPs, Mn^2+
  Relative activity: 21-23

## Y639F: T7 RNAP with wild-type tyrosine at position 639 substituted by phenylalanine
[1]; 2′-F-ATP replacing ATP
  Activity: 50 ± 1.4
[1]; 2′-F-CTP replacing CTP
  Activity: 63 ± 3.1
[1]; 2′-F-UTP replacing UTP
  Activity: 73 ± 2.6
[1]; 2′-NH2-ATP replacing ATP
  Activity: 21 ± .75
[1]; 2′-NH2-CTP replacing CTP
  Activity: 60 ± 2.5
[1]; 2′-NH2-UTP replacing UTP
  Activity: 12 ± .41
[1]; 2′-dATP replacing ATP
  Activity: 40 ± 1.3
[1]; 2′-dCTP replacing CTP
  Activity: 57 ± 1.7
[1]; 2′-dUTP replacing UTP
  Activity: 46 ± 2.4
[1]; ATP
  Activity: 96 ± 3.0
[1]; CTP
  Activity: 103 ± 2.3
[1]; UTP
  Activity: 95 ± 6.7
[2]; [3]
  Relative activity: 3-5
[2]; [4]
  Relative activity: 1-2
[2]; [5]
  Relative activity: 12-14
[2]; [6]
  Relative activity: .7-2
[2]; [7]
  Relative activity: 10-11
[2]; [8]
  Relative activity: 2-3
[2]; [9]
  Relative activity: 11
[2]; [10]
  Relative activity: 1.5-2
[2]; [11]
  Relative activity: 10-13
[2]; [12]
  Relative activity: 2-4
[2]; [13]
  Relative activity: 5-6
[2]; [14]
  Relative activity: 1-1.5
[2]; 2 rNTPs, dATP, dTTP, Mg^2+
  Relative activity: 11-14
[2]; 2 rNTPs, dATP, dTTP, Mn^2+
  Relative activity: 3-4
[2]; 2 rNTPs, dCTP, dATP, Mg^2+
  Relative activity: 20-29
[2]; 2 rNTPs, dCTP, dATP, Mn^2+
  Relative activity: 4-7
[2]; [15]
  Relative activity: 11-14
[2]; [16]
  Relative activity: 2-5
[2]; 2 rNTPs, dCTP, dTTP, Mg^2+
  Relative activity: 30
[2]; 2 rNTPs, dCTP, dTTP, Mn^2+
  Relative activity: 5
[2]; 2 rNTPs, dCTP, dUTP, Mg^2+
  Relative activity: 27-29
[2]; 2 rNTPs, dCTP, dUTP, Mn^2+
  Relative activity: 4-7
[2]; [17]
  Relative activity: 13-15
[2]; [18]
  Relative activity: 3-6
[2]; 3 rNTPs, dATP, Mg^2+
  Relative activity: 73
[2]; 3 rNTPs, dATP, Mn^2+
  Relative activity: 2-3
[2]; 3 rNTPs, dCTP, Mg^2+
  Relative activity: 86
[2]; 3 rNTPs, dCTP, Mn^2+
  Relative activity: 7-11
[2]; 3 rNTPs, dGTP, rGMP, Mg^2+
  Relative activity: 95-109
[2]; 3 rNTPs, dGTP, rGMP, Mn^2+
  Relative activity: 1.4-2.5
[2]; 3 rNTPs, dGTP, Mg^2+
  Relative activity: 43-63
[2]; 3 rNTPs, dGTP, Mn^2+
  Relative activity: 3
[2]; 3 rNTPs, dTTP, Mg^2+
  Relative activity: 90-96
[2]; 3 rNTPs, dTTP, Mn^2+
  Relative activity: 4
[2]; 3 rNTPs, dUTP, Mg^2+
  Relative activity: 82-91
[2]; 3 rNTPs, dUTP, Mn^2+
  Relative activity: 7-8
[2]; 4 dNTPs, rGMP, Mg^2+
  Relative activity: <.5
[2]; 4 dNTPs, rGMP, Mn^2+
  Relative activity: .5
[2]; 4 rNTPs, Mg^2+
  Relative activity: 200
[2]; 4 rNTPs, Mn^2+
  Relative activity: 9
